The results in this text go back to the DeepSol protein solubility set.

The data set is described as follows: soluble on expression in E. coli; label from the status in PepcDB or PDB records.
On to “MGSDKIHHHHHHMPRNMPCPDNTMPSLSFWWRYPYLRVLVVVLLMTSQPCAISAQASTSPSVAQSSLRHLSDQLPIVGVWLTNSPSPLYYSRNLMHKAVKDLYSAGFTALYLNVWSRGSTFHRSNYAPVEGPLQKAGLALDPICTLSREGHARGMKVMPWFEYGLMEPDDAEVVKLHPDWVLARADGNPVVKMHGNHQRVWLNPAHPEVRARFIGVVIEVMKRCKMDGVQLDDHFAWPVKLGYDPYTVALYQQETGSSPPRDYSDRFWMQWRRRKLTGLLRELRQALEKEKLPVNISLAPGPFRFAYNNWLQDWELWTVGKLIDELVVQNYAYSLKGFAKDLDQPALRKAPQLGVPVHIGVLAGFGKRTTPMPILAEKVRMAAERGHGVIYFYWEGLWGQHAGIEGGIQRLRQFKQLHEKKN”, for which the “soluble on expression in E. coli” value is “not soluble”.

As for “MSLNYEGRVLVVDDVNDIRMLVGHMVQNSGLKVEYGRNGLEALDKVTDAINDGDPYDLVLIDIHMPVMNGSEAIKQIRSSGIHFPVVAMTAATMKGVRDQLISQGFTNVLEKPINHDALLKVLDAHLTAVSEPIQVETTDAHDNDASQQDESSERQHFLLVEDDVDAADITALLLESLGIDVHVAHSGQECMDVFNQRNDWSKVLMDLNLPDASGLNLAKEIHKTSPQLELVLLSGEEPDAQSMADADITKFILKPINKKVLSDLVEEGHHHHHH”, the “soluble on expression in E. coli” value is reported as “soluble”. The entry for “MESEMSDPQPLQEERYDMSGARLALTLCVTKAREGSEVDMEALERMFRYLKFESTMKRDPTAQQFLEELDEFQQTIDNWEEPVSCAFVVLMAHGEEGLLKGEDEKMVRLEDLFEVLNNKNCKALRGKPKVYIIQACRGEHRDPGEELRGNEELGGDEELGGDEVAVLKNNPQSIPTYTDTLHIYSTVEGYLSYRHDEKGSGFIQTLTDVFIHKKGSILELTEEITRLMANTEVMQEGKPRKVNPEVQSTLRKKLYLQ” is “soluble”; for “MIKGGGGKSSGYSADLMVCFPSRAHLSLPSKSISSPSSSFNRRQNAPHHRRSISKLSSSGGGVRQNRGGGREVVEEPTSPKVTCAGQIKVRSSKRDGGGKNWQSLMAEIEKIHRSKSESKFFGIKRDVMGFLTCLRDFDFRCFGAFPPVDIISDDEEEDEEEEEEDEEEDEDESSGTVFSKWLMVLHEKQNNEECVDGKENVFSDVETAVPPPNALLLMRCRSAPVKNWSEEKKEETEEGDNRVKQSGEEEEEEKDRVGNKKDLRSLMEEEKKMNLVVMNYDTNYYKLSNDIAKETWVVGGIQDPLFRSRSWKK” it is “not soluble”; for “MACCLSEEAREQKRINQEIEKQLQRDKRNARRELKLLLLGTGESGKSTFIKQMRIIHGQGYSEEDKRAHIRLVYQNVFMAIQSMIRAMDTLDIKFGNESEELQEKAAVVREVDFESVTSFEEPYVSYIKELWEDSGIQECYDRRREYQLTDSAKYYLSDLRRLAVPDYLPTEQDILRVRVPTTGIIEYPFDLEQIIFRMVDVGGQRSERRKWIHCFENVTSIMFLVALSEYDQVLVECDNENRMEESKALFRTIITYPWFTNSSVILFLNKKDLLEEKILYSHLADYFPEYDGPPRDPIAAREFILKMFVDLNPDADKIIYSHFTCATDTENIRFVFAAVKDTILQHNLKEYNLV” it is “not soluble”.

As for “MDSSVPMIDLSSGDDEEVEVAMRRSYLLPPVPERPDGFPSLLFGNGNLSRSTLSINQEISMAPSPFSEITVSSQRPLVARSGSNSSEHNLQIKEAVKKKPVADIAHVSGTFVCVCVRGAQKNFYQKYLIATPSIPKLNTFE”, the “soluble on expression in E. coli” value is given as “soluble”. The entry for “MGSDKIHHHHHHMKYTIEEIRQMQEGQTFDCKSILIEPKHLATIIVAMANADGGMIAVGISDKTRRIEGVNQDKEHLNDILRTPLDFCVPSVSVTTDYVPCTDAEGRDNRVLLMHIPASPRLHANQADEVFWRVGDKSRKLTFDERLQLMYDKGERYYEDSTAYDATLDDIDMDAVKAYMKRIGYGKSAMEYLQENKGFVTYKGDVPQVSAACILLFGKHPQTFFPRARVRFIKYFGTEEKVGREMNVIKDVTFDGRILEQIQKTVEYLETQVKEHSYLGEDGIFKTDREYPKFVIQEMVVNSVCHRDYSIKGTEIQIKMFDDRLVFETPGKLPGIVRTDNIRHTHFSRNPKIAEFLKAYDYVKEFGEGVDRMCRELSALGVKEPQYNLVAFIMKATVCAKVLEERQGTNHFDQKRPESDQKSDQMRIILELIKSNPNISRTELSEKTGLHDSSVKRRLKTLVDEGLIQRVGPDKGGQWKVIGSL” is “not soluble”; for “SGRFSIKAKNYFLTYPKCDLTKENALSQITNLQTPTNKLFIKICRELHENGEPHLHILIQFEGKYNCTNQRFFDLVSPTRSAHFHPNIQGAKSSSDVKSYIDKDGDVLEWGTFQIDGR” it is “soluble”. In the case of “MGSDKIHHHHHHLLLEQTNFRKEVNNIKIFNERNMNNLEYIIPECYADITNIYNNVIVMENIKGLTYNDVKDLDIEKKDIFGKLLMKFGLISILYTSAVHCDIHPGNLFFYINEDVKDKPKYQLGLIDFGIVSFPNRENQNFYYTFFKNIQIDKDFSKLEDVLRCILCEKDKFKNLDTIKKRLLKETIERNIIETDNKYDLDFFLKLSYTINVYGFTFTKEFNQICLSLQVVENLLKNLLLDIRKTQDEIIETFNNINKLIT”, the “soluble on expression in E. coli” value is “not soluble”.

In the case of “MSLSSTFSARGPLLTAAVLLVGLLAGCASSQSATAPSPDDSGQAQSPAQNETGENGLKPFGDVVPDTARTDPGLLTTHRFDGKLYVEIPDSLIGRELLMVSRAAQTPDGFGYGGEKTATQVLRWQRRGDQLYLRVVSHEDMAQEDDPVYQAVQNSNLEPIIQSFSIEALNEDSTGVVAEVTDLFTSDVPSLGIPSAAREEYRVRRLDGDRTYIKGVESFPENTDIEAVLTYQAENPPSNASTKTLTVSMNHSMVLLPKEPMQPRLCDDRVGYFSVERVNYSSDEQRATEACFITRWKLEPKDPEAYARGELVEPKEPIVYYIDPATPKKWRPYLKQGVEAWQSTFREAGFKNAIIAKDPPSAEEDSTFDPDDIRYSTIRYFASEVQNAYGPHVHDPRSGEILESDIGWYHNVMNLLRNWYFVQTAAVNPEARKPVFSTEVMGKLVRFVAAHEVGHTLGLPHNMGSSNAVPVDSLRSPSYTADHGTAPSIMDYARFNYVAQPGDGVENFLPRIGTYDEWAVRWGYTKRPTGSPEEQAQTLDEMILEHTDDPRYFFGASGSIDPRSQSEDLGRDAMEASRLGIANLKRILPNLIQWTSRDGEGYATLEELYGAVVNQWRRYMGHVSQHLGGVHETPKTYGQEGPVYEPVSATDQERAVDFLLTHAFETPTWMVEADVLRRIEHAGALERVREAQVGVLDGVLDPERMARMLEAEAMSEDDVYGVGDLFGDLRGGVWAELESGSVIDPYRRNLQRGYLERLDYLMTAEVEAPPPEYQQYIDYTPVDVSQSDIRPYVRAELKTLRDDVQQGLRRTTDETTEMHLQDVLARIDQTLNGTEGHHHHHH”, the “soluble on expression in E. coli” value is on record as “not soluble”. On to “MGSDKIHHHHHHMEIIAHRGFRGRYPEMTAQAYEKACELPIHGVECDVRLTADGHLACVHDRTLLRIASCGLVVSTATMDQLREHGIITLDELIDILPEDKHLYIETKHPMRYGVMAEEQVALRLRYRGLLHDPRFHLISFSHAAIRRMGRIAPGFDTIYLRREWELRYNPKDFAISRPSAWGLSLAHAKIRPQLIGRDGKKTYMWTVNDADDVRWARDNGVQLLATDYPDVALEALAQ”, for which the “soluble on expression in E. coli” value is on record as “not soluble”. The entry for “MNNETTTLISLKEAMKRVDHKLQALETQFKELDFTKDNLMQKFEHHSKALASQAAQDEMWTAVRALQLTSMELNILYSYVIEVLICLHTRVLEKLPDLVRGLPTLASVLRRKVKNKRVRVVWESILEECGLQEGDITALCTFFIARGNKAEHYTAKVRQMYIRDVTFLITNMVKNQALQDSLLRAVQVIEKGKAVRTPEKQKSSLEELIPSVKN” is “soluble”. For the sequence “MVVSSKMDIFNELESQVRSYSRSFPTIFTKSKGYKLWDVDGKEYIDFFSGAGALNYGHNDDKMKQVLIDYLLEDGIIHSLDMGTSAKVNFLKHFNKIILEPRDLNYKIMFPGPTGTNSVESALKIARKVTGRTNIISFSNAFHGMSLGSLSITSNHFKRKGAGVPLNNSIIMPYENYLDSLNSLSYLEKVLGDSGSGVALPAAIILETVQGEGGLNTASSQWLKGIDRLCKKYNILLIVDDIQAGCGRTGTFFSFEPASIKPDIICLSKSISGIGLPMAITLIKPEYDKWEPGEHNGTFRGNNLAFLAATEALSYWKDIEFINALKWKSEKITSFLNEICLKYPQLQGEVRGRGFMQGIACNTFGIAKKICSVAFENGLIIETSGPNDEVIKLLPSLTIDLEGLSKGLEMLEDSISTILKEVTH”, the “soluble on expression in E. coli” value is given as “not soluble”. The entry for “MYIGIDLGTSGVKVILLNEQGEVVASQTEKLTVSRPHPLWSEQDPEQWWQATDRAMKALGDQHSLQDVKALGIAGQMHGATLLDAQQRVLRPAILWNDGRCAQECTLLEARVPQSRVITGNLMMPGFTAPKLLWVQRHEPEIFRQIDKVLLPKDYLRLRMTGEFASDMSDAAGTMWLDVAKRDWSDVMLQACDLSRDQMPALYEGSEITGALLPEVAKAWGMATVPVVAGGGDNAAGAVGVGMVDANQAMLSLGTSGVYFAVSEGFLSKPESAVHSFCHALPQRWHLMSVMLSAASCLDWAAKLTGLCNVPALIAAAQQADESAEPVWFLPYLSGERTPHNNPQAKGVFFGLTHQHGPNELARAVLEGVGYALADGMDVVHACGIKPQSVTLIGGGARSEYWRQMLADISGQQLDYRTGGDVGPALGAARLAQIAANPEKSLIELLPQLPLEQSHLPDAQRYAAYQPRRETFRRLYQQLLPLMA” is “not soluble”; for “MKYVLIQATDNGILRRAECGGAVTALFKYLLDKKLVDGVLALKRGEDVYDGIPTFITNSNELVETAGSLHCAPTNFGKLIAKYLADKKIAVPAKPCDAMAIRELAKLNQINLDNVYMIGLNCGGTISPITAMKMIELFYEVNPLDVVKEEIDKGKFIIELKNGEHKAVKIEELEEKGFGRRKNCQRCEIMIPRMADLACGNWGAEKGWTFVEICSERGRKLVEDAEKDGYIKIKQPSEKAIQVREKIESIMIKLAKKFQKKHLEEEYPSLEKWKKYWNRCIKCYGCRDNCPLCFCVECSLEKDYIEEKGKIPPNPLIFQGIRLSHISQSCINCGQCEDACPMDIPLAYIFHRMQLKIRDTLGYIPGVDNSLPPLFNIERLEHHHHHH” it is “soluble”. The entry for “MRYMMTYDWMETVRNTNQWMGATANSMASYPLFSMVPNPVFNWMSAWGEVTERTFQRMVVKPDWGIRTFTCEDGKDHLVEINTVVERDFGDLIHINVTGRETQPRKVLLVAPMSGHYATLLRSTVKSLLVNCEVYVTDWHNARDIPVSAGKFDVEDYTLYLVDFMRELGPDTHVIAVCQPAPLTLAATAYLAELDPKAQPSTLTLIGGPVDPDATPTEVTDFGRRVTMGQLEQSMIQRVGFKYKGVGRMVYPGLLQLASFMSMNADRHSKAFTDQIQRVMRDEASDHDAHNRFYDEYLAVMDMTAEFYLSTVERVFKKREIARNAFIVDGHKVDISKITDVAVMTVEGANDDISAPGQCIAALDLCTGLADSKKANHLEPGAGHYGIFAGRSWRDNIRPLVIDFMNTNSRKGKSLRPANKNSAA” is “not soluble”. “MGANGASGDHKQLKEIRIGIQQSLSPLLIAKEKGWFEDAFEKEGIKVKWVEFQSGPPQFEGLAADKLDFSQVGNSPVIAGQAAGIDFKEIGLSQDGLKANGILVNQNSGIQDVKGLKGKKIAVAKGSSGFDFLYKALDQVGLSANDVTIIQLQPDEAASAFENGSVDAWSIWEPYLSLETMKHGAKILVNGESTDLYSPGFTLVRTKFSEEHPDEVVRFLKVFNKAVVWQKEHLDEAADLYSDIKDLDKKVVENVLKNTEPLNEIISDDIVKAQQETADFQFRTKAIDKKIDVKDVVDNTFIKKALEEHSSGGDQLEHHHHHH”: the “soluble on expression in E. coli” value was “soluble”.
